Measured values: patent US7947285B2, “Methods for preventing post endoscopic retrograde cholangiopancreatography pancreatitis” (priority 2003, dated 2011)
Where no end group is shown, it is not given here.

Key:
patients undergoing ERCP [1] = experiment: Return to baseline (pre-ERCP) activity and return to work; type: in vivo, human
Method: Incidence of post-ERCP pancreatitis (sPS vs. placebo) was evaluated as the primary efficacy variable in this study. Secondary efficacy variables included incidences of post-ERCP pancreatitis in the following sub-populations: (1) cannulation of CBD; (2) sphincterotomy of CBD; (3) cannulation of pancreatic duct; (4) sphincterotomy of pancreatic duct; (5) stent insertion and removal into CBD; (6) stent insertion and removal into pancreatic duct; (7) stone extraction (basket) from CBD; (8) stone extraction (balloon) from CBD; (9) manometry of CBD; (10) manometry of pancreatic duct; (11) pain scores pre and post ERCP (0-10 scale); (12) nausea scores pre and post ERCP (0-10 scale); (13) vomiting scores pre and post ERCP (0-10 scale); (14) return to baseline activity (pre-ERCP); and (15) return to work.
Additional secondary efficacy variables assessed were return to baseline (pre-ERCP levels of activity) and the time in days to return of pre-ERCP activity levels. There was a small difference in the percentage of patients reporting return to baseline activity within the follow-up period (2 to 4 days post-ERCP) favoring the placebo group (p=0.0230) (49.78% vs. 42.09%). Interims of the mean number of days required to achieve pre-ERCP activity levels, was 0.6 (±1.0) for the sPS group and 0.7 (±0.9) for the placebo group. An attempt was made to obtain information on return to work. Relatively few data points were able to be collected, however, because a large percentage of patients were not working pre-ERCP (retired, too ill, etc.) among the 185 patients (95 in the sPS group and 90 in the placebo group) providing relevant responses for this variable, 46.32% of sPS patients and 50.00% of placebo patients reported returning to work within the follow-up period.

patients undergoing ERCP [2] = experiment: Adverse events; type: in vivo, human
Method: This study evaluated the following safety variables: (1) Adverse events; (2) Vital signs; (3) Serum Amylase (when clinically indicated); and (4) Serum Lipase (when clinically indicated). No drug concentration measurements were assessed in this study.
Primary and secondary efficacy variables were compared between the treatment groups using the Fisher Exact Test or Cochran-Mantel Haenszel Association Test. Adverse events and vital signs (heart rate, blood pressure) were compared between the treatment groups using the t-test. The clinical assumption on which the power calculation is based was on incidence of post-ERCP pancreatitis among all patients without pancreas divisum of 6%. In order to show a 50% reduction in the rate of post-ERCP pancreatitis with a significance of p=0.05, at a power of 80%, 749 evaluable patients per treatment group (sPS vs. placebo) were needed.

Substance: synthetic porcine secretin (HSDGTFTSELSRLRDSARLQRLLQGLV-NH2; ends and bridges not checked; UniProt P63298 33-59, looked up) [SPS, synthetic form of porcine secretin, a 27 amino acid gastrointestinal peptide hormone]
- mean number of days required to achieve pre-ERCP activity levels (patients undergoing ERCP [1]; in vivo): 0.6 (±1.0) days
- percentage of patients reporting return to baseline activity (patients undergoing ERCP [1]; within the follow-up period (2 to 4 days post-ERCP), p=0.0230 favoring placebo): 42.09%
- patients reported returning to work (patients undergoing ERCP [1]; within the follow-up period, 95 patients in the sPS group, not significant): 46.32%
- Patients with AE related to study drug (%) (patients undergoing ERCP [2]; N = 488): 0.2%
- Patients with AE related to study drug: number (patients undergoing ERCP [2]; N = 488): 1
- Patients with serious AE (%) (patients undergoing ERCP [2]; N = 488): 0 (0) %
- Patients with serious AE: number (patients undergoing ERCP [2]; N = 488): 0 (0)
- Patients with severe AE (%) (patients undergoing ERCP [2]; N = 488): 0.2%
- Patients with severe AE: number (patients undergoing ERCP [2]; N = 488): 1
- Patients with unknown severity to AE (%) (patients undergoing ERCP [2]; N = 488): 0.2%
- Patients with unknown severity to AE: number (patients undergoing ERCP [2]; N = 488): 1
- Total No. of AEs related to study drug (patients undergoing ERCP [2]; N = 488): 1
- Total No. of AEs related to study drug (%) (patients undergoing ERCP [2]; N = 488): 0.2%
- Total No. of serious Aes (patients undergoing ERCP [2]; N = 488): 0 (0)
- Total No. of serious Aes (%) (patients undergoing ERCP [2]; N = 488): 0 (0) %
- Total No. of severe Aes (patients undergoing ERCP [2]; N = 488): 2
- Total No. of severe Aes (%) (patients undergoing ERCP [2]; N = 488): 0.4%
- Total No. of unknown severity to AE (patients undergoing ERCP [2]; N = 488): 1
- Total No. of unknown severity to AE (%) (patients undergoing ERCP [2]; N = 488): 0.2%
- Total No. of Aes (patients undergoing ERCP [2]; N = 488, p 0.0006): 25
- Total No. of Aes (%) (patients undergoing ERCP [2]; N = 488, p 0.0006): 5.1%
- Total No. of mild/moderate Aes (patients undergoing ERCP [2]; N = 488, p 0.0039): 21
- Total No. of mild/moderate Aes (%) (patients undergoing ERCP [2]; N = 488, p 0.0039): 4.3%
- Patients with any AE (%) (patients undergoing ERCP [2]; N = 488, p 0.0052): 4.1%
- Patients with any AE: number (patients undergoing ERCP [2]; N = 488, p 0.0052): 20
- Patients with mild/moderate AE (%) (patients undergoing ERCP [2]; N = 488, p 0.0208): 3.5%
- Patients with mild/moderate AE: number (patients undergoing ERCP [2]; N = 488, p 0.0208): 17
- AE judged by the investigator to be related to study drug (patients undergoing ERCP [2]; patient #16, mild AE of an hour duration): drop in blood pressure
- overall safety and tolerability (patients undergoing ERCP [2]; patients undergoing ERCP, 16 mcg IV): safe and well tolerated
